# Laboratory results as given in article PMC4854733 (The Journal of Experimental Medicine, 2016).
# B1: ASC^CARD-SUMO (domain or fragment)
# chain: AAKPGLHFIDQHRAALIARVTNVEWLLDALYGKVLTDEQYQAVRAEPTNPSKMRKLFSFTPAWNWTCKDLLLQALRESQSYLVEDLERS
# B2: fluorescently labeled ASC^CARD-SUMO (domain or fragment)
# chain: B1 chain
# modifications: fluorophore joined by sortase at the C-terminal sortase motif
# B3: GFP-ASC^CARD (domain or fragment)
# chain: B1 chain
# How the values were obtained:
# [1] = target: the molecule itself; assay: negative-stain electron microscopy
# [2] = target: the molecule itself; assay: fluorescence polarisation
# SEC = target: the molecule itself; assay: SEC
protein,measurement,setting,value
B1,binding result,[1],binds
B2,binding result,[2],binds
B3,binding result,SEC,binds
